# Source: the supplement of paper PMC10567573
# B1: ZER1 (parent)
# chain: PILRLLPQGISPVSQHWATWALYN
# B2: POMT2 (parent)
# chain: YHEAPMTRKHYQVTGYGINGTGDS
# Variants of: B1
# Assay: protein stability index of a GFP-peptide fusion (GPS, HEK-293T) (PSI 1-6); higher = more stable
# Conditions: c terminus: a fixed tail appended
# 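Also: lentivirally expressed fusions sorted by FACS into six bins by GFP to DsRed ratio, PSI derived from sequencing read proportions per bin multiplied by bin number.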
row,Variant,protein stability index
1,W20Y,2.5
2,W20S,2.41
3,W20G,1.37
4,W20T,3.72
5,W20I,4.55
6,W20H,2.61
7,W20K,1.28
8,W20A,2.62
9,W20N,2.09
10,W20Q,1.47
11,W20P,2.79
12,W20E,1.58
13,W20R,1.64
14,W20F,3.5
15,W20C,3.55
16,W20M,3.46
17,W20D,2.6
18,N24I,3.12
19,N24L,4.12
20,N24M,3.8
21,N24T,2.25
22,N24V,3.21
23,N24H,2.93
24,N24A,2.09
25,N24D,3.49

row,Variant,protein stability index
1,N24Q,2.31
2,N24W,2.32
3,N24R,4.17
4,N24P,3.08
5,L3E,1.36
6,L3N,2.54
7,L3R,1.95
8,L3Y,1.06
9,L3V,1.78
10,L3W,1.02
11,L3H,1.75
12,L3A,3.7
13,L3P,1.04
14,L3G,1.44
15,L3T,2.52
16,L3D,3.05
17,L3I,1.5
18,L3Q,1.62
19,P7D,2.52
20,P7M,3.56
21,P7R,1.55
22,P7E,3.19
23,P7H,5.21
24,P7C,2.12
25,P7F,2.8

row,Variant,protein stability index
1,P7V,1.65
2,P7A,2.22
3,P7W,1.97
4,P7T,3.41
5,T19G,1.97
6,T19D,2.33
7,T19A,2.69
8,T19K,2.3
9,T19P,2.12
10,V13I,1.68
11,V13N,1.8
12,V13D,2.84
13,V13S,2.54
14,V13W,1.54
15,V13T,3.01
16,V13A,4.06
17,V13C,2.48
18,V13F,1.88
19,V13G,1.87
20,V13L,2.34
21,G9I,2.95
22,G9F,2.78
23,G9T,2.8
24,G9N,2.01
25,G9S,2.01

row,Variant,protein stability index
1,G9H,5.34
2,G9Q,1.97
3,G9K,3.57
4,W17D,1.79
5,W17C,2.27
6,W17I,3.9
7,W17G,1.93
8,W17F,3.63
9,W17K,2.16
10,W17M,3.18
11,W17H,1.57
12,W17A,1.72
13,W17R,3.1
14,W17N,1.83
15,W17V,2.59
16,W17T,1.73
17,W17Y,2.15
18,W17L,4.01
19,W17S,2.51
20,W17P,1.4
21,W17Q,3.2
22,W17E,2.35
23,S11P,1.77
24,S11A,2.83
25,S11L,2.53

row,Variant,protein stability index
1,S11I,2.53
2,S11D,3.26
3,S11M,1.99
4,S11C,3.31
5,S11V,2.22
6,S11G,2.17
7,S11H,2.03
8,S11W,1.59
9,S11E,3.05
10,S11R,3.06
11,H16P,1.45
12,H16K,1.94
13,H16D,2.11
14,H16I,3.38
15,H16R,3.32
16,H16N,2.34
17,H16E,1.34
18,L22E,1.58
19,L22D,2.02
20,L22N,1.88
21,L22Y,2.83
22,L22A,3.32
23,L22R,3.48
24,L22S,1.71
25,L22G,2.3

row,Variant,protein stability index
1,L22W,4.02
2,L22H,1.58
3,L22Q,3.18
4,L22K,1.52
5,L22P,1.57
6,Y23N,2.92
7,Y23E,1.8
8,Y23R,1.17
9,Y23V,3.73
10,Y23S,1.66
11,Y23H,3.01
12,Y23P,1.54
13,Y23K,1.92
14,Y23D,2
15,Y23G,2.11
16,Y23I,3.22
17,Y23W,4.62
18,Q8Y,2.12
19,Q8R,3.32
20,Q8H,1.5
21,Q8K,2.29
22,Q8F,2.58
23,Q8W,3.15
24,L6D,2.56
25,L6F,3.51

row,Variant,protein stability index
1,L6R,3.26
2,L6C,2.88
3,L6P,2.83
4,L6E,2.53
5,L6Q,1.46
6,L6Y,2.65
7,I2T,2.92
8,I2Q,1.26
9,I2R,3.12
10,I2P,3.08
11,P12Y,3.44
12,P12H,3.2
13,P12Q,3.42
14,P12V,2.1
15,P12I,3.2
16,P12N,1.85
17,P12K,2.87
18,P12F,3.32
19,P12A,2.33
20,I10E,3.31
21,I10M,3.55
22,I10H,2.79
23,I10D,1.76
24,I10N,2.41
25,I10L,2.61

row,Variant,protein stability index
1,R4F,4.37
2,R4T,3.54
3,R4H,2.46
4,R4V,2.42
5,R4N,2.38
6,R4Y,3.25
7,R4Q,1.4
8,R4I,3.46
9,R4W,2.54
10,R4L,1.38
11,R4S,2.24
12,R4K,3.47
13,L5D,2.04
14,L5Y,1.77
15,L5Q,1.95
16,L5A,1.65
17,L5T,1.14
18,L5C,3.09
19,L5M,3.4
20,L5K,1.25
21,L5R,1.84
22,L5H,2.07
23,L5F,2.22
24,L5N,1.99
25,L5G,3.62

row,Variant,protein stability index
1,L5V,3.75
2,Q15T,3.05
3,Q15E,2.19
4,Q15K,2.97
5,Q15L,1.94
6,Q15M,4.6
7,Q15F,2.68
8,Q15N,2.99
9,Q15G,1
10,Q15V,3.31
11,A21T,2.57
12,A21K,2.07
13,A21S,2.6
14,A21P,2.65
15,A21Y,4.95
16,A21F,2.7
17,A21C,2.69
18,A21E,2.6
19,A21N,1.76
20,A21L,2.38
21,A21R,1
22,A21M,3.29
23,A21D,2.79
24,A21I,3.15
25,A21Q,3.72

row,Variant,protein stability index
1,A21V,3.96
2,A21W,2.29
3,A18H,2.94
4,A18R,2.58
5,A18E,2.82
6,A18G,2.24
7,A18T,3.18
8,A18K,2.89
9,A18C,1.74
10,A18I,1.83
11,A18Y,4.06
12,A18N,3.82
13,A18M,2.28
14,A18L,2.27
15,S14K,1.43
16,S14C,2.98
17,S14Y,2.6
18,S14Q,2.12
19,S14T,1.11
20,S14V,2.62

# Variants of: B2
# Assay: as above
# Conditions: c terminus: a fixed tail appended
row,Variant,protein stability index
1,H2G,2.92
2,H2T,2.58
3,H2Y,2.75
4,H2V,1.89
5,H2K,3.57
6,H2C,1.97
7,H2F,3.38
8,H2M,3.09
9,H2D,3.98
10,H2N,3.5
11,H2I,2.21
12,H2L,3.07
13,H2P,2.99
14,H2A,2.56
15,H2E,3.95
16,H2Q,3.33
17,H2W,2.72
18,H2R,3.81
19,H2S,3.39
20,Y1V,3.49
21,Y1K,3.97
22,Y1E,4.3
23,Y1Q,3.9

row,Variant,protein stability index
1,Y1P,4.07
2,Y1S,3.68
3,Y1H,3.58
4,Y1M,3.71
5,Y1R,3.51
6,Y1L,3.47
7,Y1I,4.03
8,Y1T,3.91
9,Y1W,3.72
10,Y1D,3.94
11,Y1C,3.05
12,Y1F,1.89
13,Y1G,3.53
14,Y1A,3.68
15,Y1N,3.5
16,E3I,1.73
17,E3H,1.77
18,E3W,1.44
19,E3F,1.52
20,E3Y,1.77
21,E3Q,1.34
22,E3K,1.9
23,E3T,2.32

row,Variant,protein stability index
1,E3C,2
2,E3V,2.22
3,E3S,1.6
4,E3N,2.38
5,E3G,2.75
6,E3P,2.87
7,E3A,2.46
8,E3D,2.15
9,E3L,1.61
10,E3M,1.67
11,E3R,1.47
12,P5Q,2.84
13,P5A,2.62
14,P5C,2.31
15,P5E,3.17
16,P5H,2.74
17,P5N,2.32
18,P5I,3.27
19,P5L,1.89
20,P5F,2.77
21,P5M,2.79
22,P5D,2.72
23,P5G,2.51

row,Variant,protein stability index
1,P5K,2.36
2,A4C,2.5
3,A4H,2.04
4,A4L,1.91
5,A4G,2.37
6,A4I,2.42
7,A4E,2.93
8,A4V,2.96
9,A4K,2.18
10,A4D,2.95
11,A4F,2.68
12,A4Q,2.68
13,A4T,2.21
14,A4Y,3.11
15,A4S,1.92
16,A4R,2.45
17,A4M,1.49
18,A4P,1.96
19,A4W,2.2
20,A4N,1.69
